This data set in a line: soluble fraction after stress (log2 fold change); higher = more stays soluble; pooled small domains, quantitative proteomics. The following applies: stress: pH 4. In outline: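 After pH 4 stress, pooled custom libraries of small protein domains were quantified with high-throughput quantitative proteomics. Aggregation propensity is taken from the fold change in each domain's soluble amount following the acid stress. The scale is log2, where higher values mean more stayed soluble.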
With “HMVPAMEVALEDARRAIEQVVSGERTSVQLSSQEAMIRKLQHQMAKDANLFSRSSGVEPQRRVTIYTN”, the “soluble fraction (log2)” value is -0.478.

Consider “HMVPHQPRVWTNTAGKTITAAFVRFNAAGRKVSLKLEKGRQVELPLASLSGNDVDWIKEHVPEAMSNQE”, for which the “soluble fraction (log2)” value was -0.00313.

As to “HMVPISGADFEKLSDYILQKAGAGSIQVKELLAGLKGMHEKNLWKAIDYLLAEEKIRIDKGGNISVK”, the “soluble fraction (log2)” value is -0.249.

As for “HMVPQAVQDIKAYLASGALPYIGPATAKKIVAMFGSDALDVIAEHPEQLTAIRGLNEEKANAIHQEFRRQF”, the “soluble fraction (log2)” value was 0.0364.

In the case of “HMVPSSHNIAQKVKQIKINDLWLDVRERYIYLKNLYLSHPLEKDHPSFIVYVEAVNQIYNQYF”, the “soluble fraction (log2)” value came to 0.0743.

Regarding “HMVQDDLRELEGISTELLAKLADAGITNRDDLADLAIDELVAITGQSEDDAKALIMKAREHWFAGDA”, the “soluble fraction (log2)” value was -1.09.

Regarding “HMVQIIQLQGTDKRLYELVAPLVMNPEILKQNYNYPFRTSEDFVWFVAVDKKKVIGFIPVEEKKKEYVI”, the “soluble fraction (log2)” value was -0.275.

Take “HMVRKGEINFDQLSVRARNALRNMNILFEKEILKLTEYDLKSIPNLGVKTTNELLSYIKRLQTNQKEE”: the “soluble fraction (log2)” value is -0.653.

On to “HMVRRSERLHALTESLRRSGNRGRTAEQLATEFEVSVRTIKRDLVALEASGLPLWSRPGPGGGYGLLS”, for which the “soluble fraction (log2)” value was -0.0236.

“HMVRTIKILGIKHNINLYYKNVKVPTMNVKNQTLEIILPNKYKKFQEEQILKVLTQKLYDKIAETEIEKIK”: the “soluble fraction (log2)” value is at least 0.43.

Take “HMVSAEQNTLEFIKENVKEDVIEDDIEFYKSLLEDWSVEVDNSSKLLDPGNNNSLLAVIAYSIENEL”: the “soluble fraction (log2)” value is -0.414.

For the sequence “HMVSDAWITGKVKSQLLADDVTPGMKIDVDTEDRIVSLKGTVPSLTARNEAIRIASHTKGVRTVDADELIV”, the “soluble fraction (log2)” value was -0.0247.

“HMVSFAEQASDWLAHFDRLGDVGPDTTLTDLTARDAEFSAWVNEGIHHRVAFLETLAAWHRTER”: the “soluble fraction (log2)” value is -0.0379.

For the sequence “HMVSGLEILKIQVQDHPSDWRWALLLARTHYENGNREAAVRTLRPLQRLHPDRLEVMTLWALLA”, the “soluble fraction (log2)” value was -0.222.

Consider “HMVSGSPTVDILMQRGLEYQQQENLEAARDAFDRAINLKPDYAEAWNRRAVLFFNEGKYDEAIADLETAIT”, for which the “soluble fraction (log2)” value is -0.0941.

In the case of “HMVSKEELANSIYENKTADELGNIVLRKGKYSGEMLRTIYVKDIGYLEWHSKQSYEYSNAVKWYLKKLE”, the “soluble fraction (log2)” value was -0.846.

Regarding “HMVSLEEIINDLTSRIQTAVKMRFSDFVQNRKERVGVIVSFLGMLELVKQGIIDIKQEGHFADIEMETA”, the “soluble fraction (log2)” value was -0.58.

“HMVSLSENQKIVLESLNTAMSARELMEILNLSDISHFRRNILNPLLLEGLIVRTKPDKPKSSKQKYIKANF”: the “soluble fraction (log2)” value is -0.354.

For “HMVSPEVEMLRAAVETMSERQKQVYELHYLRGFNVKETAAILGMSSPTVTAHKKRIMEIIKKFFE”, the “soluble fraction (log2)” value is -0.88.

For “HMVSPFQQQIADKVHNEIIAAKFNYDNATNENERLLAQLQAKKARELANQYGLDMSSYGADTTAERS”, the “soluble fraction (log2)” value was determined as 0.00762.

As to “HMVSSAEQQARDKESGMILVQEAGGPDKARALVEKMRQDIRNPALDGTRRQMLRGHVARIELALAELETG”, the “soluble fraction (log2)” value was -0.0115.

Consider “HMVSVGDIFAGRIISNENGHLLLQLLDGSKISAQTVTDLKYNIGDVLNLEIIEEKQGLIFVRQT”, for which the “soluble fraction (log2)” value is -0.471.

Regarding “HMVSVLGRRIKELRLQNSMTQMQLAKKLGYKGNSLVAGWELGKNYPSVSSIKRLSEIFDTDLMKYVG”, the “soluble fraction (log2)” value stood at 0.22.

“HMVTDTGAIEKVIDEVIAANPKQVQEIADQRAAGHEKPKTLGWLVGQIMKASGGKVNPAAVNEILLKKLG”: the “soluble fraction (log2)” value is 0.00199.

For the sequence “HMVTFDEISQSLVRDVAARRSLSVQTLHAMVDRYNAGSSINAVANQYGIDRLKLREILIELGVHVAT”, the “soluble fraction (log2)” value is -0.44.

In the case of “HMVTLQEVKQYLRIDFEEEDPLLLSLLATAKQQVMNVGRMDEAQLSEHEDTARTAILYAVSYLYENRN”, the “soluble fraction (log2)” value was -1.63.

With “HMVTPAQQARDTLLGALVGLARATTSEPKTDDTDVVLNAGLRLAAQPDAPEERLQRMLAIVQTEKHRV”, the “soluble fraction (log2)” value stood at 0.215.

For the origin of these results see the domain aggregation screens of Martell et al. (2025).
